The values below come from US20090155164A1 (Amgen, published 2009).

For assay [1], the target named is T1, avidin-c-fms Ig-like 1 domain fusion protein (chicken; human, UniProt P07333 20-126).
T1 construct: Joined through an XhoI site; Captured on biotin beads; also called Ig1 construct; Ig-like loop 1 (IPVI-ALLP); not shown: chicken avidin, N-terminal fusion partner from pCEP4-Avidin(N)
Put plainly: FACS, biotin beads loaded with the avidin fusion protein, FITC-labeled antibody; Neg CM value of this antibody 3.32. Here is the method:
(§1) The concentration of each c-fms avidin fusion protein was determined using a quantitative FACS based assay. The c-fms avidin fusion proteins were captured on 6.7 μm biotin polystyrene beads (Spherotech, Inc., Libertyville Ill.). 1× conditioned media (20 and 200 μl) were added to 5 μl (˜3.5×10⁵) beads, and incubated for 1 hr at room temperature with rotation. Conditioned media was removed by centrifugation and samples were washed with PBS containing 0.5% BSA (BPBS). The avidin beads were stained with 200 μl of a 0.5 μg/ml solution of a goat FITC-labeled anti-avidin antibody (Vector Labs, Burlingame, Calif.) in BPBS for 45 minutes at room temperature covered by foil. Following incubation, the beads were recollected by centrifugation, washed with BPBS, and resuspended for analysis in 0.5 ml BPBS. The FITC fluorescence was detected using a FACScan (Becton Dickinson Bioscience, Franklin Lakes, N.J.). The signal was converted to protein mass using a standard curve derived with rAvidin. For epitope mapping, biotin beads were loaded with ˜100 ng of c-fms avidin fusion protein per 3.5×10⁵ beads and brought up to volume with growth medium.
(§2) After incubation for 1 hr at room temperature, 3 ml washing buffer (BPBS) was added and the antibody-beads complexes were collected by centrifugation for 5 min at 750×g. The pellet was washed in 3 ml of BPBS. The antibody bound to avidin-bead complexes was detected by FACS (Becton Dickinson) analysis. The mean (X) fluorescent intensity was recorded for each sample.
Background: In flow cytometry, cells or beads pass a laser one at a time.

Assay [2] concerns the target T2, avidin-c-fms Ig-like 1-2 domain fusion protein (chicken; human, UniProt P07333 20-223).
T2 construct: Captured on biotin beads; also called Ig1-2 construct; Ig-like loops 1 and 2 (IPVI-AQIV); not shown: chicken avidin, N-terminal fusion partner from pCEP4-Avidin(N)
The assay is described as above. How it is done: as §1, §2

The target in assay [3] is T3, avidin-c-fms Ig-like 1-4 domain fusion protein (chicken; human, UniProt P07333 20-418).
T3 construct: Captured on biotin beads; also called Ig-like loops 1-4 (IPVI-GTLL); not shown: chicken avidin, N-terminal fusion partner from pCEP4-Avidin(N)
T3 sequence (P07333 20-418 limits assumed): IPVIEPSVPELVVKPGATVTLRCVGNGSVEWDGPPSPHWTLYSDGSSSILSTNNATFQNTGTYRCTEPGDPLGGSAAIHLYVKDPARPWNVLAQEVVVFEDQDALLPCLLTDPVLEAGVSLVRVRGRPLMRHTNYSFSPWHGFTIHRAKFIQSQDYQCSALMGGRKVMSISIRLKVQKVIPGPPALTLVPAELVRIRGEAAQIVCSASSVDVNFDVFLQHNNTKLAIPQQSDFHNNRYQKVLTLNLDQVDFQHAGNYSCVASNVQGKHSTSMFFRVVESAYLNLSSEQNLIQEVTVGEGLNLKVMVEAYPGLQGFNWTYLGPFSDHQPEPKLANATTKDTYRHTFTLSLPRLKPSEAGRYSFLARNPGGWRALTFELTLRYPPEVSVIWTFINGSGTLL
The description is as above. Here is the method: as §1, §2

Assay [4] has as its target T4, avidin-c-fms Ig-like 1-5 domain fusion protein (full extracellular domain) (chicken; human, UniProt P07333 20-512).
T4 construct: Captured on biotin beads; also called c-fms ECD Ig1-5 construct; human c-fms ECD; not shown: chicken avidin, N-terminal fusion partner from pCEP4-Avidin(N)
Described as above. How it is done: as §1, §2

The target of assay [5] is T1, avidin-c-fms Ig-like 1 domain fusion …. Put plainly: FACS, biotin beads loaded with the avidin fusion protein, FITC-labeled antibody; Neg CM value of this antibody 4.74. How it is done:
as §1, §2

Assay [6] deals with T2, avidin-c-fms Ig-like 1-2 domain fusion …. The assay is described as above. Here is the method: as §1, §2
For assay [7], the target named is T3, avidin-c-fms Ig-like 1-4 domain fusion …. The assay is described as above. Here is the method:
as §1, §2

Assay [8] addresses T4, avidin-c-fms Ig-like 1-5 domain fusion …. Described as above. Here is the method: as §1, §2
Assay [9] has as its target T1, avidin-c-fms Ig-like 1 domain fusion …. Briefly: FACS, biotin beads coated with the avidin fusion protein, FITC-1.109 without competitor.
The target is the same in assay [10]. Put plainly: FACS, biotin beads loaded with the avidin fusion protein, FITC-labeled antibody; Neg CM value of this antibody 4.22. Here is the method:
as §1, §2

The target in assay [11] is T2, avidin-c-fms Ig-like 1-2 domain fusion …. The assay is described as above. Here is the method: as §1, §2
Assay [12] has as its target T3, avidin-c-fms Ig-like 1-4 domain fusion …. Described as above. Here is the method: as §1, §2
The target of assay [13] is T4, avidin-c-fms Ig-like 1-5 domain fusion …. Described as above. How it is done:
as §1, §2

T4 sequence (P07333 20-512 limits assumed): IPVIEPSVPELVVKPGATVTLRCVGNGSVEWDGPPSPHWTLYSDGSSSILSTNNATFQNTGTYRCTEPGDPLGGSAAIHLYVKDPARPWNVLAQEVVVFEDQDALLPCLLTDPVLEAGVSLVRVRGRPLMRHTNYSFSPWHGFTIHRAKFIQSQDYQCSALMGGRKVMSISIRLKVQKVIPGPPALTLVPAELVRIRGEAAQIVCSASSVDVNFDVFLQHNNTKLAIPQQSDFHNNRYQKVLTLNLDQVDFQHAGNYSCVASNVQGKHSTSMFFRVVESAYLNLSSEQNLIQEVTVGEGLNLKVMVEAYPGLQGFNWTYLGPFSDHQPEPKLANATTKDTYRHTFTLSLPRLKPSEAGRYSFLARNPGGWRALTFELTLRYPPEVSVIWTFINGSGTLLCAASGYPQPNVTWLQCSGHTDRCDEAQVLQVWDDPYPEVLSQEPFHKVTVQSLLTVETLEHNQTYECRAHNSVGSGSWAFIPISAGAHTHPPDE
T2 sequence (P07333 20-223 limits assumed): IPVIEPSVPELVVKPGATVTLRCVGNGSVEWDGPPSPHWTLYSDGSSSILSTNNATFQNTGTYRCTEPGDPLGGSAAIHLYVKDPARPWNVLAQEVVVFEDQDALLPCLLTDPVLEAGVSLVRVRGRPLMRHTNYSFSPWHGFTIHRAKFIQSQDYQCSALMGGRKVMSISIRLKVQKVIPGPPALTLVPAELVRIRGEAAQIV
T1 sequence (P07333 20-126 limits assumed): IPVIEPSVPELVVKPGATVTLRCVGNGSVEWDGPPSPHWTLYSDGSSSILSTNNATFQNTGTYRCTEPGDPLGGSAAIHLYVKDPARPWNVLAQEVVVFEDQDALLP

B1: anti-c-fms IgG2 clone 2.360 (parent form, PT) (antibody, V domains shown)
VH: QVQLVQSGAEVKKPGASVKVSCKVSGYTLTELSMHWVRQAPGKGLEWMGGFDPEDGETIYAQKFQGRVTMTEDTSTDTVYMELSSLRSEDTAVYYCATGVMITFGGVIVGHSYYGMDVWGQGTTVTVSS
VL: DIQMTQSPSSLSASVGDRVTITCRASQGINNYLAWYQQKPGKVPQLLIYVASTLQSGVPSRFSGSGSGTDFTLTISSLQPEDVATYYCQKYNSGPFTFGPGTKVDIKR
modifications: N-terminal glutamine cyclized to pyroglutamic acid; C-terminal lysine absent
notes: Recombinant human IgG2 kappa from COS/PKB cells
In the case of B1, the MFI in assay [1] was found to be 2.85; in assay [2], 12; in assay [3] it was 10.4; in assay [4], 15.4.

B2: anti-c-fms IgG2 clone 1.2 (parent form, PT) (antibody, V domains shown)
VH: QVQLVQSGAEVKKPGASVKVSCKASGYTFTSYGISWVRQAPGQGLEWMGWISAYNGNTNYAQKLQGRVTMTTDTSTSTAYMELRSLRSDDTAVYYCARESWFGEVFFDYWGQGTLVTVSS
VL: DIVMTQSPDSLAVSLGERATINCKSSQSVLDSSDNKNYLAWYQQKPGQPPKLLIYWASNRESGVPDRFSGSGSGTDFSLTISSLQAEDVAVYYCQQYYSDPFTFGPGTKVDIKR
modifications: N-terminal glutamine cyclized to pyroglutamic acid; C-terminal lysine absent
notes: Recombinant human IgG2 kappa from COS/PKB cells (hybridoma was IgG1); also called 1.2.1; Clone 1.2 PT
For the molecule B2, the MFI in assay [5] was 2.89; in assay [6], 148; in [7], 134; in assay [8], 342.

B3: anti-c-fms IgG2 clone 1.109 (parent form, PT) (antibody, V domains shown)
VH: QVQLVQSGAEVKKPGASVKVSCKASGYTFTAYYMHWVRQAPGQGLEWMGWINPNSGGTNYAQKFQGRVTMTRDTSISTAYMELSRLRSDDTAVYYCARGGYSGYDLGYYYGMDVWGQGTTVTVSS
VL: DIQMTQSPSSLSASVGDRVTITCQASQNISNFLDWYQQKPGKAPNLLIYDASDLDPGVPSRFSGSGSGTDFTFTISSLQPEDIATYYCQQYVSLPLTFGGGTKVEIKR
modifications: N-linked glycosylation site at Asn-28 in CDR1, reported as likely occupied; N-terminal glutamine cyclized to pyroglutamic acid; C-terminal lysine absent
notes: Recombinant human IgG2 kappa from COS/PKB cells (hybridoma was IgG1)
Regarding B3, the binding result in [9] is “no binding (tested: 1 µg/ml)”. Also, the MFI is 2.93 in assay [10], 232 in assay [11], 215 in [12] and 668 in assay [13].
